Data: patent US20240293518A1 (HEALTH RESEARCH, published 2024)
One block for each molecule: values may come before it.

How the values were obtained:
[1] = target: ErbB2/delD2, human ErbB2 with deletion of ECD subdomain 2 (deletion of amino acids 196-320) (human) (UniProt P04626); test: ELISA; panel e; cell lysates; conditions: ligand
[2] = target: ErbB2/delD4, human ErbB2 with deletion of ECD subdomain 4 (deletion of amino acids 489-560) (human) (UniProt P04626); test: ELISA; panel e; cell lysates; conditions: ligand
[3] = target: T1, ErbB3/ECD-Fc, chimera of the ECD (Ser20-Thr643) of human ErbB3 and Fc (human, UniProt P21860 20-643); test: pull-down with protein G-sepharose, SDS-PAGE, silver stain
T1 construct: range 20-643; Bought from R&D Systems; also called human ErbB3/ECD-Fc; R&D Systems 348-RB-050; not shown: Fc (of human IgG1)
Experimental: (§1) Similar protein expression levels of ErbB2 and its mutants were detected in CHO-K1 cells transiently transfected with the plasmids (FIG. 1d). An equal amount of ErbB2 and its mutants, based on western blot quantification, were used in the same ELISA mentioned above. […] Thus, PEPD bound to D3, but D2 and D4, the latter in particular, may facilitate PEPD binding to ErbB2.
(§2) Immunoprecipitation. PEPD was incubated with ErbB2/ECD-Fc, ErbB3/ECD-Fc, ErbB4/ECD-Fc or Fc in binding buffer for 2 h at 37° C., followed by pull down with protein G-sepharose beads. […] For detection of direct and specific binding of PEPD or NRG-1 to ErbB2, ErbB3 or ErbB4, recombinant human PEPD or NRG-1 was incubated with recombinant human ErbB2/ECD-Fc, recombinant human ErbB3/ECD-Fc, recombinant human ErbB4/ECD-Fc or recombinant human Fc in 0.4 ml binding buffer. All solutions were incubated for 2 h at 37° C., followed by incubation with protein G-sepharose beads for 1 h at room temperature. […] In experiments using whole cell lysates, cells were lysed in M-PER buffer supplemented with a proteinase inhibitor mix (Roche Applied Science), and the lysates were incubated with a specific antibody overnight at 4° C., followed by pull down by protein G-agarose. […]

[4] = target: T2, ErbB4/ECD-Fc, chimera of the ECD (Gln26-Arg649) of human ErbB4 and the Fc (human, UniProt Q15303 26-649); test: as above
T2 construct: range 26-649; Bought from R&D Systems; also called human ErbB4/ECD-Fc; R&D Systems 1131-ER-050; not shown: Fc (of human IgG1)
T2 sequence (looked up): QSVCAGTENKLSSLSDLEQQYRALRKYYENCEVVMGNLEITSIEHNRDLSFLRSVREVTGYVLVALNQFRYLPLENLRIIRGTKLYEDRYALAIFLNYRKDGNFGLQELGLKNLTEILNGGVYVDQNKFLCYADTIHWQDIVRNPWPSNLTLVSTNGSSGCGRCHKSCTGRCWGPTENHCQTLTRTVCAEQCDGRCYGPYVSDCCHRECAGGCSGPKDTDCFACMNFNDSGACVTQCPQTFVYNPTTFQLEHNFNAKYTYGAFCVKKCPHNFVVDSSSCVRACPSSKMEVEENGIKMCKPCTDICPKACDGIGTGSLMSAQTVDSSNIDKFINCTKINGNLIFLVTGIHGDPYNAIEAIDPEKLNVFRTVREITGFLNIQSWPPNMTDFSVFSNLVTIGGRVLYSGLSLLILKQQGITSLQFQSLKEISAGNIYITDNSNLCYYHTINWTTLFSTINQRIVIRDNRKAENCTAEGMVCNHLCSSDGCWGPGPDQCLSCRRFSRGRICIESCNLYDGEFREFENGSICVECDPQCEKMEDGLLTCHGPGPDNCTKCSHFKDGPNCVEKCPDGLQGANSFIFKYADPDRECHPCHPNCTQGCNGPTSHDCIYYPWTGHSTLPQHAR
Experimental: as §1, §2

[5] = target: T3, ErbB2/delD4, human ErbB2 with deletion of ECD subdomain 4 (deletion of amino acids 489-560) (human, UniProt P04626 23-1255); test: ELISA, equal amounts of ErbB2 and mutants from lysates of transfected CHO-K1 cells
T3 construct: whole, on cells; Transiently expressed in CHO-K1 cells; also called pCMV6-XL5-ERBB2/delD4
Excerpt: as §1, with “Overexpression of human ErbB2 in CHO-K1 cells was readily achieved by gene transfection (FIG. 1b). […] Next, we removed the four ECD subdomains of human ErbB2 one at a time (FIG. 1d), using the ErbB2-expressing plasmid pCMV6-XL5-ERBB2 as a template. Similar” for “Similar”
(§3) ELISA-based measurement of PEPD and PEPD binding to ErbB2. To measure PEPD binding to human ErbB2 or its deletion mutants, ELISA plates were coated overnight at 4° C. with 100 μl/well of an ErbB2 antibody (binding to the cytoplasmic tail of ErbB2) at 10 μg/ml. After washing the wells three times with PBST, residual protein binding sites in the wells were blocked by incubation for 2 h at room temperature with 300 μl/well of 1% BSA in PBS. […] After three washes with PBST, 100 μl of a biotin-conjugated anti-His antibody (1:10,000 dilution; note that PEPD is His-tagged) was added to each well and incubated for 2 h at room temperature.

[6] = target: T4, ErbB2/delD2, human ErbB2 with deletion of ECD subdomain 2 (deletion of amino acids 196-320) (human, UniProt P04626 23-1255); test: as above
T4 construct: whole, on cells; Transiently expressed in CHO-K1 cells; also called pCMV6-XL5-ERBB2/delD2
Excerpt: as §1, with “Overexpression of human ErbB2 in CHO-K1 cells was readily achieved by gene transfection (FIG. 1b). […] Next, we removed the four ECD subdomains of human ErbB2 one at a time (FIG. 1d), using the ErbB2-expressing plasmid pCMV6-XL5-ERBB2 as a template. Similar” for “Similar”
as §3

[7] = target: T5, ErbB2 p95 fragment (minus ECD) (human, UniProt P04626 648-1255, limits assumed); test: co-immunoprecipitation with a PEPD antibody from lysates of APMA-treated CHO-K1/ErbB2 cells, western blot
T5 construct: domain: trans-membrane and intracellular regions (p95 fragment, minus ECD); Generated in CHO-K1/ErbB2 cells by 1 mM APMA for 0.25 h and tested in cell lysates; also called trans-membrane and intracellular regions of ErbB2
Experimental: FIG. 8. Data showing validation of a cell line used in the present disclosure, and lack of binding of PEPD to the transmembrane and intracellular regions of human ErbB2. (a) CHO-K1 cells were transiently transfected with an ErbB2-expressing plasmid (pCMV6-XL5-ERBB2) or the empty plasmid for 24 h. Human bladder cancer RT-4 cells and human breast cancer MCF-7 cells were untreated and were used as positive controls for ErbB1, ErbB3 and ErbB4. Cell lysates were analyzed by western blotting. GAPDH is a loading control. (b) CHO-K1 cells stably expressing ErbB2 (CHO-K1/ErbB2 cells) were treated with 1 mM APMA for 0.25 h. Cell lysates were then prepared and analyzed by western blotting (the first lane on the right). The same cell lysates were mixed with 1 μM PEPD, which were then incubated with a PEPD antibody or an isotype-matched IgG, pulled down with protein G-agarose, and analyzed by western blotting.
Immunoprecipitation. PEPD was incubated with ErbB2/ECD-Fc, ErbB3/ECD-Fc, ErbB4/ECD-Fc or Fc in binding buffer for 2 h at 37° C., followed by pull down with protein G-sepharose beads. The immunoprecipitates were washed with IP washing buffer and analyzed by western blotting. […] The immunoprecipitates were washed with IP washing buffer and analyzed by western blotting.

[8] = target: T6, Human ErbB2, wild type, full length (human, UniProt P04626 23-1255); test: ELISA; ErbB2 captured from lysates of ErbB2-transfected CHO-K1 cells by an antibody to its cytoplasmic tail, His-tagged PEPD detected with anti-His
T6 construct: whole, on cells; Three sources: CHO-K1 cells transiently transfected with pCMV6-XL5-ERBB2, CHO-K1/ErbB2 cells expressing it stably, and BT-474 cells where it is endogenous; The ELISA and the immunoprecipitations used cell lysates; The other assays used living cells; also called WT-ErbB2; Her2
Excerpt: as §1, with “Overexpression of human ErbB2 in CHO-K1 cells was readily achieved by gene transfection (FIG. 1b). […] Next, we removed the four ECD subdomains of human ErbB2 one at a time (FIG. 1d), using the ErbB2-expressing plasmid pCMV6-XL5-ERBB2 as a template. Similar” for “Similar”
as §3

T1 sequence (P21860 20-643 limits assumed, change not shown): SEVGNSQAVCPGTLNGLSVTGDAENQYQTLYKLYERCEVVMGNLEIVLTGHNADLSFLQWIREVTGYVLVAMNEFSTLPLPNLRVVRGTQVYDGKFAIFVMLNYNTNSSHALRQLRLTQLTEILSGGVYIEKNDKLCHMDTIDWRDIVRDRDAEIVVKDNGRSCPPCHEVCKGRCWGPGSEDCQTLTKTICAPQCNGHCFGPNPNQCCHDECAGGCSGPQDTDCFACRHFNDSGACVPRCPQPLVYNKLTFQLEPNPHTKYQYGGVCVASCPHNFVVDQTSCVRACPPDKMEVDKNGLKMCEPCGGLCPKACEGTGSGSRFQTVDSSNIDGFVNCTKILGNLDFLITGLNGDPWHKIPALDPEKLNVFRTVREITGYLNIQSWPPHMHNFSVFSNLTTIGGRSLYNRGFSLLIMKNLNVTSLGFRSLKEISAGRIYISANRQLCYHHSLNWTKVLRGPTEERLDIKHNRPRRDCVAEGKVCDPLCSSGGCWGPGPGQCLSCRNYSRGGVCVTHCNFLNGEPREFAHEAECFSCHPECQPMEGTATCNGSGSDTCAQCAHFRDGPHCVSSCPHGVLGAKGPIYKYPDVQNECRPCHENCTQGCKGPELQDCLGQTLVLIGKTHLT

Molecule: Recombinant human PEPD (peptidase D, prolidase), wild type, 6×His tagged at the carboxy terminus (from UniProt P12955 1-493)
Kd [1]: 25.9 nM
Kd [2]: 372 nM

fold reduction of binding affinity against wild-type ErbB2 [5]: 51 fold
fold reduction of binding affinity against wild-type ErbB2 [6]: 3.5 fold
binding result [7]: no binding (tested: 1 µM PEPD)
Kd [8]: 7.3 nM
B1: Recombinant human PEPD (peptidase D, prolidase), wild type, 6×His tagged at the carboxy terminus (ligand)
chain: MAAATGPSFWLGNETLKVPLALFALNRQRLCERLRKNPAVQAGSIVVLQGGEETQRYCTDTGVLFLQESFFHWAFGVTEPGCYGVIDVDTGKSTLFVPRLPASHATWMGKIHSKEHFKEKYAVDDVQYVDEIASVLTSQKPSVLLTLRGVNTDSGSVCREASFDGISKFEVNNTILHPEIVESRVFKTDMELEVLRYTNKISSEAHREVMKAVKVGMKEYGLESLFEHYCYSRGGMRHSSYTCICGSGENSAVLHYGHAGAPNDRTIQNGDMCLFDMGGEYYSVASDITCSFPRNGKFTADQKAVYEAVLLSSRAVMGAMKPGDWWPDIDRLADRIHLEELAHMGILSGSVDAMVQAHLGAVFMPHGLGHFLGIDVHDVGGYPEGVERIDEPGLRSLRTARHLQPGMVLTVEPGIYFIDHLLDEALADPARASFLNREVLQRFRGFGGVRIEEDVVVIDSGIELLTCVPRTVEEIEACMAGCDKAFTPFSGPKHHHHHH
notes: Made in bacteria (pBAD/Thio-TOPO, without the N-terminal Thio) and purified on nickel; also called WT-PEPD; rhPEPD
binding result [3]: no binding (tested: PEPD 1 µM with 0.04 µM ErbB3/ECD-Fc)
binding result [4]: no binding (tested: PEPD 1 µM with 0.04 µM ErbB4/ECD-Fc)
